Results from publication PMC11176775, “Impact of DNA ligase 1 and IIIα interactions with APE1 and polβ on the efficiency of base excision repair pathway at the downstream steps” (The Journal of Biological Chemistry, 2024).

Target: DNA polymerase β (1–335 amino acids), as used in SEC and in the repair assays (UniProt P06746 1-335)
Assay: cell-based or functional assay

B1: LIG1▵N-terminal (262–919 amino acids) (domain or fragment)
chain: DPSGYNPAKNNYHPVEDACWKPGQKVPYLAVARTFEKIEEVSARLRMVETLSNLLRSVVALSPPDLLPVLYLSLNHLGPPQQGLELGVGDGVLLKAVAQATGRQLESVRAEAAEKGDVGLVAENSRSTQRLMLPPPPLTASGVFSKFRDIARLTGSASTAKKIDIIKGLFVACRHSEARFIARSLSGRLRLGLAEQSVLAALSQAVSLTPPGQEFPPAMVDAGKGKTAEARKTWLEEQGMILKQTFCEVPDLDRIIPVLLEHGLERLPEHCKLSPGIPLKPMLAHPTRGISEVLKRFEEAAFTCEYKYDGQRAQIHALEGGEVKIFSRNQEDNTGKYPDIISRIPKIKLPSVTSFILDTEAVAWDREKKQIQPFQVLTTRKRKEVDASEIQVQVCLYAFDLIYLNGESLVREPLSRRRQLLRENFVETEGEFVFATSLDTKDIEQIAEFLEQSVKDSCEGLMVKTLDVDATYEIAKRSHNWLKLKKDYLDGVGDTLDLVVIGAYLGRGKRAGRYGGFLLASYDEDSEELQAICKLGTGFSDEELEEHHQSLKALVLPSPRPYVRIDGAVIPDHWLDPSAVWEVKCADLSLSPIYPAARGLVDSDKGISLRFPRFIRVREDKQPEQATTSAQVACLYRKQSQIQNQQGEDSGSDPEDTY
amount of ligation products after polβ dGTP:C insertion in the coupled assay, absence against presence of the N-terminal region of LIG1, earlier time points (10-60 s): ~20 fold
